Values of other authors as cited in patent publication US20060024387A1, “Methods and compositions for increasing milk production in animals” (priority 2004, published 2006).

Settings: injection

B1: BST: Hormone injected to increase milk production in lactating cows (protein, UniProt P01246 27-217, looked up)
Somatotropin: AFPAMSLSGLFANAVLRAQHLHQLAADTFKEFERTYIPEGQRYSIQNTQVAFCFSETIPAPTGKNEAQQKSDLELLRISLLLIQSWLGPLQFLSRVFTNSLVFGTSDRVYEKLKDLEEGILALMRELEDGTPRAGQILKQTYDKFDTNMRSDDALLKNYGLLSCFRKDLHKTETYLRVMKCRRFGEASCAF
For B1, the “effect on milk production” value is listed as “increase milk production”.
